Patent US6638724

Test system: T1, human BLNK-1 (B cell LINKER PROTEIN, 70,000 Mr protein)
T1 sequence: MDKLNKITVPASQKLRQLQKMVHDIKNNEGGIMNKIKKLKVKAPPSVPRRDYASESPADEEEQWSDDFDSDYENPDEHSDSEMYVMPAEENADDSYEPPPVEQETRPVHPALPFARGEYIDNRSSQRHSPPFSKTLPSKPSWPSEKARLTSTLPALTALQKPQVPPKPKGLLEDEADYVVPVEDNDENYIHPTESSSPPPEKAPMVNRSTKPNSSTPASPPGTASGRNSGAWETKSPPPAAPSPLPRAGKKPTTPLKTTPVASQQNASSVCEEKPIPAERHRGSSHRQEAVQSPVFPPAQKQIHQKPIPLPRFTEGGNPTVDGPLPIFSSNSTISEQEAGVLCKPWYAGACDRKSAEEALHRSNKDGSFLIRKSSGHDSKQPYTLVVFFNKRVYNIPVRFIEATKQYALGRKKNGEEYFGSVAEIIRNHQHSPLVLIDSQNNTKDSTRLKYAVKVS

Syk protein tyrosine kinase
tyrosine phosphorylation of BLNK: Syk can phosphorylate BLNK when co-expressed in insect cells, and in vitro
